According to US20100099619A1:
Square brackets hold non-standard residues; d marks the D form. Ends that are not written are not given here. Ahx = NCCCCCC(=O)O

T1: neuropeptide Y1 receptor, P25929
T1 chain: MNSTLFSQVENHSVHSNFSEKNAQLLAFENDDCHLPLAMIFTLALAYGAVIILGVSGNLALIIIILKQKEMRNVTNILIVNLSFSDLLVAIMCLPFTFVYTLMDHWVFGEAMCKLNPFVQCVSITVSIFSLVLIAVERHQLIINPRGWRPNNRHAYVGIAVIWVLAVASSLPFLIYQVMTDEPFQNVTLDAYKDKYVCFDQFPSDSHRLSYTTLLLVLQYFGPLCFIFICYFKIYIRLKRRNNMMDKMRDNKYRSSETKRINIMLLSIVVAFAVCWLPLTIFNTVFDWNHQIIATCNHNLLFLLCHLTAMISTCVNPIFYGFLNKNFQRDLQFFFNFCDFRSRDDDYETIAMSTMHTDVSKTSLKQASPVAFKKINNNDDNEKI

T2: neuropeptide Y2 receptor, P49146
T2 chain: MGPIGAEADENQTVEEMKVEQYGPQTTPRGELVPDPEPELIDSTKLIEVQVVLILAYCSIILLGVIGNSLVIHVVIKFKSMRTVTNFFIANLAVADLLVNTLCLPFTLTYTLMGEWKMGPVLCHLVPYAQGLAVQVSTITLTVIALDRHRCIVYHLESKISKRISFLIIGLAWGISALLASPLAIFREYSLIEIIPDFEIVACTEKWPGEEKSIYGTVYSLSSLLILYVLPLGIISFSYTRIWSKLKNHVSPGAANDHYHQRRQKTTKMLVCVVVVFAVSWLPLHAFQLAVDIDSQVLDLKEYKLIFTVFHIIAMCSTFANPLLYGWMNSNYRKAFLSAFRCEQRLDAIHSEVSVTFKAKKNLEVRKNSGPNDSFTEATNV

T3: neuropeptide Y5 receptor (Homo sapiens (Human)), Q15761
T3 chain: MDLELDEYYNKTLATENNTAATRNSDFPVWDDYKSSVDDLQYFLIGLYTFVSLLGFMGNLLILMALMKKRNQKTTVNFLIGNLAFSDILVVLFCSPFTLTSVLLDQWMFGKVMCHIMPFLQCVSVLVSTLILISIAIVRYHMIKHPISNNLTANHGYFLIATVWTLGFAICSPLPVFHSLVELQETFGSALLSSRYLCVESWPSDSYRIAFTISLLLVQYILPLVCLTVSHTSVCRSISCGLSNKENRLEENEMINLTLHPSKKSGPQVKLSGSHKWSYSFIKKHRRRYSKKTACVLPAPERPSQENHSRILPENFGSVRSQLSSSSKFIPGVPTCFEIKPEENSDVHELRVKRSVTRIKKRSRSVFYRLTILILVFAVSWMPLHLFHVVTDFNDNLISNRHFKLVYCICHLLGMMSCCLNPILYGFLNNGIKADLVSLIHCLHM


Experiments:
[1] = target: T1, neuropeptide Y1 receptor, P25929; assay: displacement of [125I]-human PYY, SK-N-MC membranes
[2] = target: T2, neuropeptide Y2 receptor, P49146; assay: displacement of [125I]-human PYY, SK-N-BE membranes
[3] = target: neuropeptide Y5 receptor; assay: displacement of [125I]-human PYY, Y5-transfected CHO-K1 membranes
[4] = target: neuropeptide Y4 receptor; assay: displacement of [125I]-human PP, Y4-transfected CHO-K1 membranes
[5] = target: T1, neuropeptide Y1 receptor, P25929; assay: radioligand competition, [125I]-hPYY, SK-N-MC membranes
[6] = target: T2, neuropeptide Y2 receptor, P49146; assay: radioligand competition, [125I]-hPYY, SK-N-BE membranes
[7] = target: neuropeptide Y4 receptor; assay: radioligand competition, [125I]-hPP, Y4/CHO-K1 membranes
[8] = target: T3, neuropeptide Y5 receptor (Homo sapiens …); assay: radioligand competition, [125I]-hPYY, Y5/CHO-K1 membranes
[9] = target: neuropeptide Y4 receptor; assay: competition vs [125I]-hPP, Y4-transfected CHO-K1 membranes
[10] = target: T3, neuropeptide Y5 receptor (Homo sapiens …); assay: competition vs [125I]-hPYY, Y5-transfected CHO-K1 membranes
[11] = target: T2, neuropeptide Y2 receptor, P49146; assay: competition vs [125I]-hPYY, SK-N-BE membranes
[12] = target: T1, neuropeptide Y1 receptor, P25929; assay: competition vs [125I]-hPYY, SK-N-MC membranes

neuropeptide Y4 receptor, sequence (P50391 whole entry): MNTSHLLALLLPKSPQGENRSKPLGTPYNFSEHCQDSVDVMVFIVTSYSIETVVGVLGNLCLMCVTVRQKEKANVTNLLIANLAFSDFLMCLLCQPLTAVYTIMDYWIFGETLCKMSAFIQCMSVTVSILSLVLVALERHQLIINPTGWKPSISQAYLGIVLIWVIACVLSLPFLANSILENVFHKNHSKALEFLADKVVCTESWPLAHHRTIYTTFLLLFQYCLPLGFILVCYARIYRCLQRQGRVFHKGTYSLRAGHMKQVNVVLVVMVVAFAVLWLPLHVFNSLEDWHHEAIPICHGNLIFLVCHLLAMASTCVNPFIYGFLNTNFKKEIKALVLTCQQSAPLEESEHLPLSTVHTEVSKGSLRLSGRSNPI

| Binder | Y1RBA [5] [nM] | Y2RBA [6] [nM] | Y4 RBA [7] [nM] | Y5RBA [8] [nM] | other results |
| --- | --- | --- | --- | --- | --- |
| YPIAPEAPGEDASPEELAQYAADLRRYINMLTRQRY (modifications not checked) [SEQ ID NO: 476] |  |  |  |  | Y1RBA [1]: 27 nM; Y2RBA [2]: 7.4 nM; Y5RBA [3]: 15 nM; Y4 RBA [4]: 53 nM |
| YPIKPEAPGEDASPEELAQYAADLRRYINMLTRPRY (modifications not checked) [SEQ ID NO 309] | 3.3 | 78 | 5.6 | 1.5 |  |
| YPIKPEAPGEDASPEELNQYAASLRRYINMLTRQRY (modifications not checked) [SEQ ID NO 317] | 4.3 | 0.097 | 16 | 0.69 |  |
| YPIKPEAPGEDASPEELNQYAADLRRYINMLTRQRY (modifications not checked) [SEQ ID NO 316] | 7.1 | 0.63 | 52 | 1.1 |  |
| ASLRHYLNLVTRQRY (modifications not checked) [SEQ ID NO 203] |  |  | 108 |  |  |
| RHYLNLVTRQRY (modifications not checked) [SEQ ID NO: 179] |  |  |  |  | Y4 RBA [9]: 33 nM |
| IAPEAPGEDASPEELAQYAADLRRYINMLTRQRY (modifications not checked) [SEQ ID NO: 477] |  |  |  |  | Y1RBA [1]: 265 nM; Y2RBA [2]: 4.4 nM; Y5RBA [3]: 18 nM; Y4 RBA [4]: 164 nM |
| IKPEAPGEDASPEELAQYAADLRRYINMLTRPRY (modifications not checked) [SEQ ID NO 310] | 29 | 454 | 27 | 5.1 |  |
| YPIK[Ahx]ELNRYYASLRHYLNLVTRQRY (ends and bridges not checked) [PYY(1-4)Aca(16-36)] |  |  |  |  | Y4 RBA [9]: 65 nM; Y5RBA [10]: 5.8 nM; Y2RBA [11]: 0.21 nM; Y1RBA [12]: 4.4 nM |
| ASLRHYLNLVTRQRY (modifications not checked) [SEQ ID NO 202] |  |  | 23 |  |  |
| EELNRYYASLRHYLNLVTRQRY (modifications not checked) [SEQ ID NO: 177] |  |  |  |  | Y4 RBA [9]: 46 nM; Y5RBA [10]: 11 nM; Y2RBA [11]: 0.34 nM; Y1RBA [12]: 5.8 nM |
| YYASLRHYLNLVTRQRY (modifications not checked) [SEQ ID NO: 178] |  |  |  |  | Y4 RBA [9]: 38 nM; Y5RBA [10]: 17 nM; Y2RBA [11]: 0.29 nM; Y1RBA [12]: 7.7 nM |
| APLEPVYPGDNATPEQMNRYYASLRHFLNLVTRQRY (modifications not checked) [SEQ ID NO 288] | 1.8 | 0.35 | 11 | 1.1 |  |
| APLEPVYPGDNATPEQMNRYYASLRAYLNLVTRQRY (modifications not checked) [SEQ ID NO 308] | 1 | 0.56 | 2.1 | 1.4 |  |
| APLEPVYPGDNATPEQMNRYYASLRHYLNLAPRQRY (modifications not checked) [SEQ ID NO 289] |  |  | 48 | 0.83 |  |
| APLEPVYPGDNATPEQLNRYYASLRHYLNLVTRQRY (modifications not checked) [SEQ ID NO 295] | 1 | 0.18 | 1 | 0.63 |  |
| APLEPVYPGDNASPEELNRYYASLRHYLNLVTRQRY (modifications not checked) [SEQ ID NO 297] | 3.6 | 0.32 | 4 | 1.8 |  |
| APLEPVYPGDNATPEELNRYYASLRHYLNLVTRQRY (modifications not checked) [SEQ ID NO 296] | 2.7 | 0.76 | 2.9 | 2.1 |  |
| APLEPVYPGDNATPEQMNKYYASLRHYLNLVTRQRY (modifications not checked) [SEQ ID NO 306] | 0.6 | 0.16 | 1.2 | 0.27 |  |
| APLEPVYPGDNATPEQMNKYYASLRHYLNLVTRQRY (modifications not checked) [SEQ ID NO 293] | 0.82 | 0.18 | 0.87 | 0.48 |  |
| APLEPVYPGDNATPEQMAQYAADLRRYINMLTRPRY (modifications not checked) [PP (human pancreatic polypeptide)] |  |  |  |  | Y4 RBA [9]: 0.034 nM |

More lines, main results first:

| Y1RBA [5] [nM] | Y2RBA [6] [nM] | Y4 RBA [7] [nM] | Y5RBA [8] [nM] | Binder | other results |
| --- | --- | --- | --- | --- | --- |
| 1.8 | 0.15 | 11 | 0.3 | YPIKPEAPGEDASPQELAQYAADLRRYINMLTRQRY (modifications not checked) [SEQ ID NO 341] |  |
| 35 | 18 | 740 | 51 | YPIKPEAPGEDASPEELAQYAAELRRYIQMLTRQRY (modifications not checked) [SEQ ID NO 347] |  |
| 100 | 1.3 | 84 | 1.9 | YAIKPEAPGEDASPEELAQYAADLRRYINMLTRQRY (modifications not checked) [SEQ ID NO 318] |  |
| 34 | 0.72 | 109 | 3.6 | YPIKPEAGPEDASPEELAQYAADLRRYINMLTRQRY (modifications not checked) [SEQ ID NO 335] |  |
| 13 | 0.54 | 38 | 1 | YPIRPEAPGEDASPEELAQYAADLRRYINMLTRQRY (modifications not checked) [SEQ ID NO 332] |  |
| 15 | 0.62 | 84 | 1.4 | YPIKPEAPGEDASPDELAQYAADLRRYINMLTRQRY (modifications not checked) [SEQ ID NO 342] |  |
| 12 | 3.7 | 57 | 5.6 | YPIKPEAPGEDASPEELAQYAADLKRYINMLTRQRY (modifications not checked) [SEQ ID NO 321] |  |
